# Source: patent US12318427
# How the values were obtained:
# Test in all cases: cell_activity
# [1] = tested on: ZFP-TF SBS 57890 (artificial); settings: AAV9 hSYN1 in humanized tau mice, 6 wk; mouse tau ~81%; human iPSC neurons tau protein reduced 2-fold (p208)
# [2] = tested on: ZFP-TF SBS 65918 R(-5)Q in F1 and F5 (Qm5 phosphate contact mutants) (artificial); settings: AAV6 SYN1, human iPSC-derived neurons, 32 days, ELISA; combined with 57890 >10-fold
# [3] = tested on: ZFP-TF SBS 57930 (artificial); settings: AAV6 SYN1, human iPSC-derived neurons, 32 days, ELISA
Sequence,activity (% human tau mRNA repression) [1],activity (fold tau protein reduction) [2],activity (fold tau protein reduction) [3]
TGGTGCTGGAGCTGGTGGGTGGCGGAGA (double strand) [MAPT target site of 57890],60,,
CGGCAGAAGGTGGGCGGTGGCGGCGGCG (double strand) [MAPT target site of 57930/65918],,> 2,> 5
